Data as given in patent US20240409638A1 (AVACTA LIFE SCIENCES, published 2024).

What was measured:
[1] = molecular target: T1, human PD-L1-Fc (R&D Systems) (human, UniProt Q9NZQ7 19-239); assay: PD-L1/PD-1 competition ELISA (binding inhibition %): human PD-1-Fc coated, AFFIMER preincubated with huPD-L1-Fc at its EC80, bound PD-L1 detected; blocked ligand: human PD-1-Fc. The table column is headed 'EC50 (nM)'; the text calls the values IC50
T1 construct: Bought reagent; also called huPD-L1-Fc; huPD-L1; not shown: Fc part of the bought fusion
T1 sequence (Q9NZQ7 19-239 limits assumed): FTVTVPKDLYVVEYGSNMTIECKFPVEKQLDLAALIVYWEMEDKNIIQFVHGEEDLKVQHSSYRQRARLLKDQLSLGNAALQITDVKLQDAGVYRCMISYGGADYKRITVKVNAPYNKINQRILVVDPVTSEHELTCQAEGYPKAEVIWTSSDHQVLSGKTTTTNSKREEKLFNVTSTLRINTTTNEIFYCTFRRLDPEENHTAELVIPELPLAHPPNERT
Protocol: Plates were washed two times with washing buffer (PBS, Tween 20 0.1%) with a plate washer and saturated with Casein 5% (Sigma) in PBS for 90 minutes at room temperature (25±1° C.). […] Plates were washed 3 times as described previously. […] Plates were washed 3 times as described previously and Streptavidin-HRP was added, and the plates were incubated for 30 minutes at room temperature (25±1° C.). Plates were washed a last time and the substrate (TMB; Pierce Thermo-Scientific) was added to the plate. After 10 minutes, the reaction was stopped using an acidic solution and the plates were read at absorbance 450-630 nm. The IC₅₀ was then calculated using the interpolated non-linear four-parameters standard curve.

[2] = molecular target: T2, PD-L1 on cells (NCI-H441 cells; aAPC PD-L1/CHO-K1 cells, Promega) (human, UniProt Q9NZQ7 19-290); assay: flow cytometry, % positive cells, aAPC PD-L1/CHO-K1 cells (overexpressing PD-L1)
T2 construct: whole, on cells; also called human PD-L1-expressing CHO-K1 cells; H441 cells endogenously expressing PD-L1
T2 sequence (Q9NZQ7 19-290): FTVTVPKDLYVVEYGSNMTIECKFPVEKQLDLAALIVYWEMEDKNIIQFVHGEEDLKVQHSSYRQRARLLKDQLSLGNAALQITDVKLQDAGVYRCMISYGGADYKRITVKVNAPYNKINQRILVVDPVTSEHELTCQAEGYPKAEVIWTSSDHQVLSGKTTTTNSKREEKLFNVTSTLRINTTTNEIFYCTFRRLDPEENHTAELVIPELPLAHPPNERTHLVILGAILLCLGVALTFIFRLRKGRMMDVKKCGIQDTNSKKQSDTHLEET
Protocol: (§1) Lung cancer cell line (NCI-H441 (ATCC), CHO-K1 recombinant cell line overexpressing PD-L1 aAPC/CHO-K1 (Promega J1252)) and a negative cell line (CHO-K1, ATCC) were used to assess AFFIMER® agent binding capacity to PD-L1 by flow cytometry.
(§2) Briefly, 50 000 cells were added to each well of a 96-well microplate. After this step and each subsequent step, cells were washed twice with PBS+2 mM EDTA using 350g centrifugation for 3 minutes at 4° C. All steps were performed at 4° C. using assay buffer comprising 5% FBS, 2 mM EDTA and 0.05% sodium azide in PBS unless otherwise stated. Independent AFFIMER® agent dilutions were prepared in duplicate and added to the plates. […] Fixation was performed for 10 minutes at 4° C. with Fixation Buffer (Bio-techne FC004). Cells were resuspended in 100 ul assay buffer prior the acquisition of the data. 5000 events were collected by Flow cytometry (Millipore Guava 12HT). The results were gated on live cells and singlets (SSC-H vs SSC-A). The percentage of cells expressing PD-L1 bound by the AFFIMER® agent (positive cells) was determined by using as negative control (background) where the wells were stained with the AF488 conjugated secondary antibody only without AFFIMER® agent. The average of the duplicate wells was used to calculate EC₅₀ using a four-parameter non-linear regression curve fit using Graphpad Prism software. […]

[3] = molecular target: T2, PD-L1 on cells (NCI-H441 cells; aAPC …); assay: flow cytometry, % positive cells, NCI-H441 cells (endogenous PD-L1)
Protocol: as §1, §2

[4] = molecular target: T3, murine serum albumin (MSA) (murine, UniProt P07724 25-608); assay: SPR (Biacore): immobilized ligand MSA (Sigma # A3559), AFFIMER as analyte, pH 7.0 by the legend
T3 construct: Bought reagent

B1: Clone 80 XT35 (anti-PD-L1 type III AFFIMER® XT in-line fusion dimer XT) (designed binder)
chain: MIPGGLSEAKPATPEIQEIVDKVKPQLEEKTGETYGKLEAVQYKTQVVRRKHFPQWPGTNYYIKVRAGDNKYMHLKVFKSLDLQPREVFQEDLVLTGYQVDKNKDDELTGFAEAAAKEAAAKEAAAKEAAAKEAAAKEAAAKMIPGGLSEAKPATPEIQEIVDKVKPQLEEKTGETYGKLEAVQYKTQVVRRKHFPQWPGTNYYIKVRAGDNKYMHLKVFKSLDLQPREVFQEDLVLTGYQVDKNKDDELTGFAEAAAKEAAAKEAAAKEAAAKEAAAKEAAAKMIPRGLSEAKPATPEIQEIVDKVKPQLEEKTNETYGKLEAVQYKTQVLANFFQRRWPGSTNYYIKVRAGDNKYMHLKVFNGPWKFRNTDRGADRVLTGYQVDKNKDDELTGFHHHHHH
notes: Made in E. coli; Two Clone 80 units are fused to one HSA-41; also called XT35_1; ILF trimer format
- IC50 [1]: 0.84 nM
- EC50 [2]: 0.036 nM
- EC50 [3]: 0.41 nM
- koff [4]: 0.0474 s⁻¹
- kon [4]: 176000 M⁻¹ s⁻¹
